The term Kd denotes a measure of binding affinity in units of concentration. Low values mean a tighter complex, high ones a looser complex.

Residue numbers refer to the chain shown, from its start.

Assay in all cases: high-throughput RNA pulldown from lysate on Ni-NTA beads; HRP: 50 mM Tris pH 8, 150 mM NaCl, 1 mM beta-mercaptoethanol, 50 ug/ml BSA, 3 ug/ml yeast RNA, 0.5% heparin; ITC and FP: Tris pH 8, 200 mM KCl, 5% glycerol; MST: 50 mM Tris pH 8, 200 mM NaCl, 1 mM DTT, BSA, heparin, 0.05% Tween 20
Common to all, as to settings: tags: N-terminal His-eGFP

For data set [1], the target named is T1, GFP-9S library array, motif 4 ND N98T;D124S (synthetic construct, N98T;D124S).
T1 chain: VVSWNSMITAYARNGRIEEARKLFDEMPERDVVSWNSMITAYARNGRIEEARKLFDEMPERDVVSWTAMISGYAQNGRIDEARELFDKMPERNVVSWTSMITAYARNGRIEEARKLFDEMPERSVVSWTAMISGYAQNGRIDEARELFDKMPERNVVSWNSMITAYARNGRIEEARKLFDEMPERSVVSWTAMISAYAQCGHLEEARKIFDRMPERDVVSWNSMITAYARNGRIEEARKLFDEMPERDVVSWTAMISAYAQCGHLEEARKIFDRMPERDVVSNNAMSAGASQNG

The target of data set [2] is T2, GFP-9S library array, motif 4 ND N98P;D124E (synthetic construct, N98P;D124E).
T2 chain: T1 chain with T98P, S124E

Data set [3] deals with T3, GFP-9S library array, motif 4 ND N98C;D124W (synthetic construct, N98C;D124W).
T3 chain: T1 chain with T98C, S124W

The target of data set [4] is T4, GFP-9S library array, motif 4 ND N98C;D124Y (synthetic construct, N98C;D124Y).
T4 chain: T1 chain with T98C, S124Y

For data set [5], the target named is T5, GFP-9S library array, motif 4 ND N98D;D124A (synthetic construct, N98D;D124A).
T5 chain: T1 chain with T98D, S124A

With AUUAGACGUGA (ssRNA) [Cy5-rpoA-G], the Kd stood at 65.5 nM in data set [1] (label: 5' Cy5); 220 nM in data set [2] (label: 5' Cy5); 84.9 nM in data set [3] (label: 5' Cy5); 72.3 nM in data set [4] (label: 5' Cy5); 114 nM in data set [5] (label: 5' Cy5).
As to AUUAUACGUGA (ssRNA) [IR-rpoA-U], the Kd was 48.8 nM in data set [1] (label: 5' IRDye 800CW); 309 nM in data set [2] (label: 5' IRDye 800CW); 234 nM in data set [3] (label: 5' IRDye 800CW); 94.2 nM in data set [4] (label: 5' IRDye 800CW); 174 nM in data set [5] (label: 5' IRDye 800CW).
In the case of AUUACACGUGA (ssRNA) [Cy5-rpoA], the Kd turned out to be 37 nM in data set [1] (label: 5' Cy5); 204 nM in data set [2] (label: 5' Cy5); 86.1 nM in data set [3] (label: 5' Cy5); 56.9 nM in data set [4] (label: 5' Cy5); 103 nM in data set [5] (label: 5' Cy5).
AUUAAACGUGA (ssRNA) [IR-rpoA-A]: the Kd in data set [1] (label: 5' IRDye 800CW) stood at 18.4 nM; in data set [2] (label: 5' IRDye 800CW), 386 nM; in data set [3] (label: 5' IRDye 800CW) it was 171 nM; in data set [4] (label: 5' IRDye 800CW) it was 217 nM; in data set [5] (label: 5' IRDye 800CW) it was 233 nM.

(Values after publication PMC8809517, “Cofactor-independent RNA editing by a synthetic S-type PPR protein”.)
